The text below walks through data of doi:10.64898/2025.12.17.694860, “Structural basis for the inhibition of Trypanosoma brucei enolase by a camelid single-domain antibody” (bioRxiv, 2025).

Assay [1] has as its target T1, Trypanosoma brucei enolase (Trypanosoma brucei (sequence identical …)).
T1 construct: Enolase (phosphopyruvate hydratase) of Trypanosoma brucei; printed MM = 48.4 kDa; Homodimer by analytical SEC and in the crystal; also called TbrENO; T. brucei enolase; source: E. coli, purified (IMAC, SEC); not shown: His tag, N-terminal, kept
Briefly: ITC. As to conditions: both partners purified.

Assay [2] concerns the target T1, Trypanosoma brucei enolase. Briefly: SEC. The settings on record: both partners purified.

B1: sdAbR1-10 (VHH)
VHH: QVQLQESGGGLVQPGGSLRLSCAAPGSIFSIFSGNIMGWYRQAPGKQRDFVASISSGGATNYADSVKGRFTISRDNAKNTVYLQMNNLKPEDTAVYYCNTVGGVHTNSWGQGTQVTVSS
Turning to B1, in assay [1], the Kd (commonly the constant that tells how readily two partners part at equilibrium) is roughly 20 nM. Further, the figures for the “stoichiometry N” value in assay [1] and in assay [2] were ~1 sdAbR1-10 per TbrENO monomer and 2 sdAbR1-10 per TbrENO dimer, respectively.
